Assay results published in paper PMC11602133.
Values joined by “and” are separate entries in the source; they are usually repeats but may differ in a detail not shown here. Equal values may be shown once.

Key:
[1] = biological target: AGAMOUS (AG), in vitro produced (Arabidopsis) (UniProt P17839); assay: native gel or EMSA; in vitro produced proteins (wheat germ TnT) mixed with a DY-682 labelled ~100 bp DNA probe containing a CArG-box (SAUR10 probe); protein complexes read from the shifted bands on DNA; anti-FLAG antibody added for supershift where FUL-FLAG was used
[2] = biological target: SUPPRESSOR OF OVEREXPRESSION OF CONSTANS 1 (SOC1), in vitro produced (Arabidopsis) (UniProt O64645); assay: as above

Chain of UniProt O64645 (O64645 whole entry): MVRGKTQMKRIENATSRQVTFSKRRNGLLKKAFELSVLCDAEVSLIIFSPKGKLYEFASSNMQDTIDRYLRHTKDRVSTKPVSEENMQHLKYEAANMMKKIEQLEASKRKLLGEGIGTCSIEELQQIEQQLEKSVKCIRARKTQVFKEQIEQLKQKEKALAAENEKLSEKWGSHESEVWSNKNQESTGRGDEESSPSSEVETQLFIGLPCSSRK
Chain of AGAMOUS (AG), in vitro produced, P17839 1-252 (natural protein; other documents disagree on this pair) (P17839 whole entry): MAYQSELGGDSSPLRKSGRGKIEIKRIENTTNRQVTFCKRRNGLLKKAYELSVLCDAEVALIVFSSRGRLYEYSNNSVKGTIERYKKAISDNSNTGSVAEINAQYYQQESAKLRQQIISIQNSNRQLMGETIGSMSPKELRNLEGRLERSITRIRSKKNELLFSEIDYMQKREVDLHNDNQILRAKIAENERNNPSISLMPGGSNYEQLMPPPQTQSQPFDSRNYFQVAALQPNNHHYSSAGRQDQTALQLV

| Substance | stoichiometry N [1] | stoichiometry N [2] |
| --- | --- | --- |
| AGAMOUS (AG), in vitro produced, P17839 1-252 (natural protein; other documents disagree on this pair) | 2 |  |
| SUPPRESSOR OF OVEREXPRESSION OF CONSTANS 1 (SOC1), in vitro produced (from UniProt O64645 1-214) (natural protein) |  | 2 and 4 |
